Experimental data: paper doi:10.1101/2020.05.05.078790

Molecular target: HLA-E*0103 heavy chain-β2M complex (human)
Experiment: ELISA

Row | Substance | percent of the VL9 signal after background subtraction [%]
1 | BZLF1 (…) (peptide) | 41
2 | RL9HIV (…) (peptide) | 43
3 | RL9SIV (…) (peptide) | 22
